According to PMC2275136:

Biological target: p53 (purified recombinant) (UniProt P04637 1-393)
Assay: EMSA

Sequence of p53 (purified recombinant) (P04637 whole entry): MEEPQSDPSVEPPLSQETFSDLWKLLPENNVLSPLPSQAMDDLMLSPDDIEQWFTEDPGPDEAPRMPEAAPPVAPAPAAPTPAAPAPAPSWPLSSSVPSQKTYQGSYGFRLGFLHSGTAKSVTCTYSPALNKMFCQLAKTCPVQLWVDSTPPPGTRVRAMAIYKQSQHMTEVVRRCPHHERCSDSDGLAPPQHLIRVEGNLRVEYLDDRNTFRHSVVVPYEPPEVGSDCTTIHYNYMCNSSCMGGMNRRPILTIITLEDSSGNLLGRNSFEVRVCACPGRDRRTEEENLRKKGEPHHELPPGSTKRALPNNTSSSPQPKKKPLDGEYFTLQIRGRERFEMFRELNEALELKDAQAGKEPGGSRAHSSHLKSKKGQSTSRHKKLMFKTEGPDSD

B1: p21 promoter p53 consensus duplex (dsDNA)
DNA 1: TTGAACATGTCCCAACATGTTGA
DNA 2: TCAACATGTTGGGACATGTTCAA
- binding result: binds
